Results on 22 sequences are retold here after the DeepSol protein solubility set.

The series can be described thus: soluble on expression in E. coli; label from the status in PepcDB or PDB records.
With “MRDTMEILRTENIVKYFGEFKALDGVSISVNKGDVTLIIGPNGSGKSTLINVITGFLKADEGRVYFENKDITNKEPAELYHYGIVRTFQTPQPLKEMTVLENLLIGEINPGESPLNSLFYKKWIPKEEEMVEKAFKILEFLKLSHLYDRKAGELSGGQMKLVEIGRALMTNPKMIVMDQPIAGVAPGLAHDIFNHVLELKAKGITFLIIEHRLDIVLNYIDHLYVMFNGQIIAEGRGEEEIKNVLSDPKVVEIYIGE”, the “soluble on expression in E. coli” value is on record as “soluble”.

In the case of “MREIPLVSVALATYNGERYLRRQLDSVLAQTYRNIEIVVSDDCSRDGTVAILEEYRRAHGITFRVNERNLGFVRNFERALAGCRGEFIALSDQDDIWLPEKIETLVREIGPHSLIYTDALLIDGDDQPLPGSLVEVSGVRPVSGTCFEYFVCNNCVTGCTAMLRRDLLATALPIPEAETYHDWWLAVAASRRNGVVYHAAKLTEYRQHAHNYTGANVRAGLPARIAAHLMGKTAAEKRGYYELLANRARRYRAMADRLNLTPAERSFLEEIGEYAESLLSGGNRMKTFALALKYRETLFPAAGRWEKLLFVFSKLIAARAILEHHHHHH”, the “soluble on expression in E. coli” value is given as “soluble”.

Regarding “MRESHNVLPPVAPVRPITRTHHGIDFVDNYEWLRDKENPETIQYLEAENAFVEQQTAHLSQLKDNIYHEIKSRVKETDMSVPQRAGDFWYYGRSVEGKSYGYSCRIPVSEGADAWVPPTIPEREPVAGEQIILDANELAEGHEFFALGASTVTTSGRYLAYSVDTEGDERFTLRVKDLATGEHLADEIPDVFYGATWAGEEYLFYQRVDAAWRPDSVWRHKIGTDPATDVQVFHEADERFNTGVGATRSERFLMIESASKITSEIWVLDLDNPTGDFRCVLPRQAGVEYDIDHAVVAGRDTWIVTHNAAGPNFEVGWTPVTDEEISLDSLEVLVPHRDEVRIEGVDTYRDHIVLAYRSGAIGRAAVMQLNADGFGTFEEITFDEELYTIGVGGHPEWDTPVVRMVYVSFTQPSQVFDYWIADGRRTLLKQQEVVGGYNADDYTASRLWVEAHDGVRIPVSLIHRSDLDLSKPNPTLLYGYGSYESSIDPGFSIARLSLMDRGMVFAIAHVRGGGEMGRGWYDTGKTVTKKNTFTDFIAVADHLIEHGVTTSEMLVAEGGSAGGMLMGAVANMAGDRFKAIEAVVPFVDPLTSMLMPELPLTVTEWDEWGDPLHDVDVYNYMASYAPYENIEAKAYPNILAVTSLNDTRVLYVEPAKWIAQLRATATGGQFLLKTEMSAGHGGVSGRYEKWKQTAFEYAWLCHQATGKES”, the “soluble on expression in E. coli” value is listed as “not soluble”.

On to “MREYKVVVLGSGGVGKSALTVQFVTGSFIEKYDPTIEDFYRKEIEVDSSPSVLEILDTAGTEQFASMRDLYIKNGQGFILVYSLVNQQSFQDIKPMRDQIIRVKRYERVPMILVGNKVDLEGEREVSYGEGKALAEEWSCPFMETSAKNKASVDELFAEIVRQMNYAAQPNGDEGCCSACVIL”, for which the “soluble on expression in E. coli” value was “soluble”.

In the case of “MRFFSLIKLPVVLVLAGLLSACGFHLRGEYSVPEELHTMSFSSYDEYSKLTRYVRSQLQLNKVDLVQPSSSVPNLHLIKATMDERTLSLYQNSRAAEKELTYVVQYRVTIPGFGSKNFTTTVNRNYLDNPLTALAKSVERDVIEDEMRQQAAKQMMRQLGRIRAEYEAGQIAAPTEKTNSLEHHHHHH”, the “soluble on expression in E. coli” value is “not soluble”.

As to “MRFKVSKLMAYILRHSPWEFGLEPDEEGFVSIEELVNAVRKVYPWVTEEYIREIVERDEKGRYEIRGNKIRARYGHSYPVILRHEEDKESKVLYHGTVRRNLKGIMREGIKPMKRQYVHLSINYEDAYNTGRRHGEDVVVLIIDAECLRNKGYKILKAGKKVRIVKHVPVDCISGILLEHHHHHH”, the “soluble on expression in E. coli” value is listed as “not soluble”.

For the sequence “MRGFSGQPLSDDDNYRIEKTQRNTIPERLHFSRERNMPIASIFGTRGYFVFSSEQSYDKFKQTNFNISTLDADGVGVPLFHIVQSYNVIGKITRSSPDFYIYKYVLQGVQDPPLYSDCKVICQDKVFRLCKILYCEIYAHQGFFETKYDFFYPSKTQPVKKYQIIKQSNMRDLYSTLDGMRFRWHVKFYSDHFRLMFLDEDRLNYSNSNQKERQKPDQGKSKAPDFVIGHYTRTFSDILPRSTSKCSNLIIGEHSKPDSLGITTVPDLTQEFACQGALIHYLLHIERERK”, the “soluble on expression in E. coli” value is on record as “soluble”.

Turning to “MRGHHHHHHHGSMTIEFVGVEKIYPGGARSVRGVSFQIREGEMVGLLGPSGSGKTTILRLIAGLERPTKGDVWIGGKRVTDLPPQKRNVGLVFQNYALFQHMTVYDNVSFGLREKRVPKDEMDARVRELLRFMRLESYANRFPHELSGGQQQRVALARALAPRPQVLLFDEPFAAIDTQIRRELRTFVRQVHDEMGVTSVFVTHDQEEALEVADRVLVLHEGNVEQFGTPEEVYEKPGTLFVASFIGESNVWTRAVQNGRIEVAGAALPVDPAVSEGSEVAVVVRPKDVELQPASEREAHAQVVRSAFKGSYSACWIRTKDGEVWEVHVPSADRHRWSPGAWVHMNVTRWFIFPR”, the “soluble on expression in E. coli” value is listed as “soluble”.

For “MRGMAANQGERIRRRLSTGERREQLLSVGARLFSESPYDEVWIEQVAEIAGVSRGLLYHYFPNKRDFFAAVVERESERMLRMTAAVPGVPVREQLTAGLDAYLEYVRAHAHGYRAFHRADAAGDRAVRRVYQKALAAQERQILAALAADPEFGPAFEERGDVRLAVRGWLAFTTAVCLEWLRDPEPAREQVRDLCARALLGAVAP”, the “soluble on expression in E. coli” value is “not soluble”.

With “MRGSAFNGKWETESQEGYEPFCKLIGIPDDVIAKGRDFKLVTEIVQNGDDFTWTQYYPNNHVVTNKFIVGKESDMETVGGKKFKGIVSMEGGKLTISFPKYQQTTEISGGKLVETSTASGAQGTAVLVRTSKKVLVPR”, the “soluble on expression in E. coli” value is “soluble”.

“MRGSHHHHHHGMASMTGGQQMGRDLYDDDDKDHPFTEGRSWPSAPDDSKAQAHRIHIDPEIQDGSPTTSRRPSGTGTGPEDGRPSLGSPYGKPPCFPVPHNGSSEATLPAQMSTLHVSPPPSADPAEASRGAGSRVDLGSEVYRMLREPAEPVAAEPKQSGSFRYLQGMLEAGEGGD”: the “soluble on expression in E. coli” value is reported as “soluble”.

In the case of “MRGSHHHHHHGSIWEWKEAHFQDAFSSFQAMYAKSYATEEEKQRRYAIFKNNLVYIHTHNQQGYSYSLKMNHFGDLSRDEFRRKYLGFKKSRNLKSHHLGVATELL”, the “soluble on expression in E. coli” value is “soluble”.

For the sequence “MRGSHHHHHHTDPALRANKVAQYYRELVASLSERLRNGERDIDALVEQARERVIKTGELTRTEVDELTRAVRRDLEEFAMSYEESLKEESDSVFMRVIKESLWQELADITDKTQLEWREVFQDLNHHGVYHSGEVVGLGNLVCEKCHFHLPIYTPEVLTLCPKCGHDQFQRRPFEPGLCGR”, the “soluble on expression in E. coli” value was “soluble”.

For the sequence “MRGSHHHHHHTDPALRANSLFASTARGLEELLKTELENLGAVECQVVQGGVHFKGDTRLVYQSLMWSRLASRIMLPLGECKVYSDLDLYLGVQAINWTEMFNPGATFAVHFSGLNDTIRNSQYGAMKVKDAIVDAFTRKNLPRPNVDRDAPDIRVNVWLHKETASIALDLSGDGLHLRGYRDRAGIAPIKETLAAAIVMRSGWQPGTPLLDPMCGSGTLLIEAAMLATDRAPGLHRGRWGFSGWAQHDEAIWQEVKAEAQTRARKGLAEYSSHFYGSDSDARVIQRARTNARLAGIGELITFEVKDVAQLTNPLPKGPYGTVLSNPPYGERLDSEPALIALHSLLGRIMKNQFGGWNLSLFSASPDLLSCLQLRADKQYKAKNGPLDCVQKNYHVAESTPDSKPAMVAEDYTNRLRKNLKKFEKWARQEGIECYRLYDADLPEYNVAVDRYADWVVVQEYAPPKTIDAHKARQRLFDIIAATISVLGIAPNKLVLKTRERQKGKNQYQKLGEKGEFLEVTEYNAHLWVNLTDYLDTGLFLDHRIARRMLGQMSKGKDFLNLFSYTGSATVHAGLGGARSTTTVDMSRTYLEWAERNLRLNGLTGRAHRLIQADCLAWLREANEQFDLIFIDPPTFSNSKRMEDAFDVQRDHLALMKDLKRLLRAGGTIMFSNNKRGFRMDLDGLAKLGLKAQEITQKTLSQDFARNRQIHNCWLITAAGLCGR”, the “soluble on expression in E. coli” value was “soluble”.

On to “MRGSHHHHHHTDPALRAQTQVLFEHPLNEKMRTWLRIEFLIQQLTVNLPIVDHAGALHFFRNVSELLDVFERGEVRTELLKELDRQQRKLQTWIGVPGVDQSRIEALIQQLKAAGSVLISAPRIGQFLREDRLIALVRQRLSIPGGCCSFDLPTLHIWLHLPQAQRDSQVETWIASLNPLTQALTMVLDLIRQSAPFRKQTSLNGFYQDNGGDADLLRLNLSLDSQLYPQISGHKSRFAIRFMPLDTENGQVPERLDFELACCGLCGR”, for which the “soluble on expression in E. coli” value is given as “soluble”.

Take “MRIAIDFDGTIVEHRYPRIGKEIPFAIATLKQLQTERHLLVLWTVREGKLLDEAVDFCRKRGLEFYAVNANHPEEEVRNDMTSPCRKVVADLYIDDLNVGKLPDWGAIYEMIHNRWSYERYLNEIHGFEKQKKISIWKRIFR”: the “soluble on expression in E. coli” value was “not soluble”.

With “MRIAIEKIIGLLKNQSSKESNVKIHRLAYITNSKFDGNNYIDRWCKIRNSHIGEYSYIGFGSDFNNVEVGRYCSISSDVKIGLGKHPTHFFSSSPIFYSNNNPFNIKQKFIDFNDQPSRTTIKNDVWIGANVIIMDGLTINTGAVIAAGSVVTKNVGAYEVVGGVPAKVIKKRFDNKTIEKLLESKWWEKTPDKLKGFSVEYLNKKDT”, the “soluble on expression in E. coli” value is recorded as “not soluble”.

Regarding “MRIHAFHHLYQYRLERSTKPFLARGGKIKRCLYCLVELTHCLCAHQPDIESQVAVLLIVSENEVFKPSNTGRLIADTVKETYVYQWSRTEPNPEMLALLSNPAYYPVLIFPAETEEDKTRVLSPIPTEFAGKKPLLVLIDGSWREAKRIFRKSPYLASLPLVSVEPERLSQYIMRKSENEQHLATAEVASLVLDMFGDRHSASTLSLWFEAFKETYLTCKSRNKPSITKPALQRWIAHQQNANCLLEHHHHHH”, the “soluble on expression in E. coli” value is recorded as “not soluble”.

Regarding “MRIHDIDPDNRPRERFLRSGKESLSPAELLALILRSGTAGLNIIDTCNKLISEHGLERLADLSIQELQKTPGIGEAKAMQIAAIFELQRRLHFARNMNLKVKGARDVFEYMKGRIPDETKEHLFVLFLSTKNQILRHETITIGTLTASLIHPREIFKAAIRESAHSIILVHNHPSGDVQPSNADKQVTSILKKAGDLLQIELLDHVIVGNNDWFSFRDHALL”, the “soluble on expression in E. coli” value is given as “not soluble”.

Take “MRIRIAHSPDSDDAFMFYPLVKGLIDTEGLEIEHVLADIETLNREALKGTYEVSAISFHAYPYVADKYAVLPSGGSIGEGYGPIVVAREELGTLKGKKIAVPGELTTAFLTLKLYEPDFEHVVIPFDRIIQAVLEGKVDAGLVIHEGQLSYKDYGLKKIVDLGEWWKEKYGLPLPLGCNVVRKDLGREVVKKIERLMRESVEYALKERKRALEYAINYARDLSEDLERTQKFVSMYVNERTVDYGEDGREAVRLLLRLGKERGIIKAEIPEKIFSDELF”: the “soluble on expression in E. coli” value is listed as “soluble”.

“MRITIVTIFPEMVEVIKKYGVIARAVERGIVEINVENLRDYTTDRHRTVDDYQYGGGYGMVMKPEPFFRFYESYVEKYGKPYVILTSPQGRIFNYKIAEELSKKDDIVIFCGRYEGIDERVMSIVDDEISIGDYILTGGELPAMVITDAVVRLVPGVVERESVERESFHQGLLDHPVYTRPYEYKGMKVPDVLLSGDHEKVELWRRKESIKKTLAKRPDLFLAKELDEMDKLAIIELFRELMEKC”: the “soluble on expression in E. coli” value is “soluble”.

Take “MRIVQATLEHLDLLAPLFVKYREFYGMLSYPESSRKFLEKRLRRKESVIYLALADEEDRLLGFCQLYPSFSSLSLKRVWILNDIYVAEEARRQLVADHLLQHAKQMARETHAVRMRVSTSVDNEVAQKVYESIGFREDQEFKNYTLPISDELS”: the “soluble on expression in E. coli” value is “soluble”.
